Measured values: article PMC10769870, “Bdellovibrio bacteriovorus uses chimeric fibre proteins to recognize and invade a broad range of bacterial hosts” (Nature Microbiology, 2024)

Legend:
[1] = target: the molecule itself; test: crystal structure; Bd2734_(691–843), JCSG+ A3, spacegroup P2_1, 1.8 Å
[2] = target: the molecule itself; test: crystal structure; Bd2133_(662–1,031), native and selenomethionine-labelled, Morpheus B3, spacegroup P6_322, 2.5 Å
[3] = target: the molecule itself; test: crystal structure; Bd2439_(837–1,107), PACT H3 (P2_122_1) and MIDASplus E9 (P4); with ethylene glycol (1.6 Å) or GlcNAc–MurNAc (1.84 Å)
[4] = target: the molecule itself; test: crystal structure; Bd3182_(632–922) crystallised by vapour diffusion at 18 °C in three forms (Morpheus C1, P2_1; Morpheus G12, I2; Proplex E3, another P2_1); the 1.1 Å form is described
[5] = target: the molecule itself; test: crystal structure; Bd2740_(518–627), MIDAS F1, spacegroup P2_12_12_1, 2.6 Å
[6] = target: the molecule itself; test: crystal structure; Bd2133_(910–1,031), Morpheus A4, spacegroup P2_12_12_1, 1 Å
[7] = target: the molecule itself; test: crystal structure; Bd1334_(914–1,151), PACT B9, spacegroup R3, 1.4 Å
[8] = target: the molecule itself; test: crystal structure; Bd1334_(818–1,151), Morpheus C1, spacegroup C2, 2.6 Å

B1: Bd2734_(691–843), tip-only variant of the NS74 MAT fibre protein Bd2734 (domain or fragment, Bdellovibrio bacteriovorus HD100, UniProt Q6MJN8 691-843, looked up)
chain: TSTLMGSLTMLGKAGCQWEHANTSFASFSNVVACNTATVTGLASAPTEGKIPGIRFANLPAGDYELTVLIFSMYPVDAGVYCRYRLWDGTNFSGMAGAYESEIYQMTGLFSYATDQTNLTFYVQAQTLTATKNCRADITVPGQDKMQIYLKKL
notes: Bd2734 of Bdellovibrio bacteriovorus HD100 (843 aa), TNF-like tip, T691-L843; pET26b construct; The count of three copies rests on the discussion's word that trimerization is invariant in the six solved MATs; source: E. coli BL21 RIPL (DE3), purified (Ni-NTA, Superdex 200)
binding result [1]: binds

B2: Bd2133_(662–1,031), tip of the NS74 MAT fibre protein Bd2133 (domain or fragment, Bdellovibrio bacteriovorus HD100, UniProt Q6ML84 662-1031, looked up)
chain: NSSGALGLSTSGSERMRIDTSGNLGLGTAAPTSALHVERTQDADTTVQVRNTHDTGTAAGARFIASNEKSGIWFGISGTSNTNTGLGSPGDAYIYNAAGTATGKNLNVINNQTGNIHFFAGSTATGTPRMTITNTGLVGINTAAPLQKLHVENGNMVITGTAPAYQLKENDTTDQNWQMGINNGNLRFATQNDALNSSSDKVVISQAGNVGIGATAPTAKLEVAGTIHSTSGGIKFPDGSVQTTAASGAATWTSLGLTSLGAVSMTTTTEQSFTLPVAAQTASQILVYLRCHSGNASTTGADDIRIYTKEGAATYDHYLLMFPYAGQGAVGYNSDSFWLPKTSDNKIYLAHSMAPGSANSGCNFYITGYK
notes: Bd2133 of Bdellovibrio bacteriovorus HD100, N662 to the C-terminus (K1031); A selenomethionine-labelled form was also crystallised for phasing; source: E. coli BL21 RIPL (DE3), purified (Ni-NTA, TEV, Ni-NTA, Superdex 200)
stoichiometry N [2]: 3

B3: Bd2439_(837–1,107), tip of the NS74 MAT fibre protein Bd2439 (domain or fragment, Bdellovibrio bacteriovorus HD100, UniProt Q6MKF5 837-1107, looked up)
chain: GGLDIVNNATGDDNRDDLNIRTYGATETSSLIMLRARGTASAPAAVQTGDRLGGVLFRGWNGTAWMGSGQILSVAEENFTTAVKTNLQFHVGGAGEAMRISNTGNVGIGTTTTTEKLNVQGNVAVSGEITSVRSWGIKRGPTSFSANYINVWNSGYHVGSSIDCTTSTTGCRILKAGTYEIRCVQRAGTSGNSVYVGIALNGDRTALESRNDVLWNHSHTAYSGSYTESNFMGTLSANDLITCGAPVNTMAADLVYAVPAYNGTMQIKRVD
notes: Bd2439 of Bdellovibrio bacteriovorus HD100, G837-D1107 (β-helix N850-V968, R969 linker, TNF-like tip S970-D1107); pET26b construct; source: E. coli BL21 RIPL (DE3), purified (Ni-NTA, Superdex 200)
stoichiometry N [3]: 3

B4: Bd3182_(632–782), mature tip region of the MAT (mosaic adhesive trimer) fibre protein Bd3182 (domain or fragment, Bdellovibrio bacteriovorus HD100, UniProt Q6MIH5 632-782, looked up)
chain: GTNDAFSLSFETNNTPRMTIDDVGRVGVGTTAPTSALHVIGTGEVARFVTSATGGVVIDSTALNYNPSLIYRKTNINRWSMMVNAASETGGNAGSNLSILRYDDTGATLGAAVTIDRASGFFGINTAAPAYNIHVTGTAGLSTGSAWTVAS
notes: Bd3182 of Bdellovibrio bacteriovorus HD100, S74-group MAT fibre protein; expressed as residues 632-922, the S74 chaperone/protease domain cuts itself off at catalytic residue S782; the fibre part, labelled 632-782, was crystallised; the model traces P647 to A781; The methods name the cloned construct once as 668-922 and elsewhere as 632-922; also called Bd3182_(632–922) (construct before …)
stoichiometry N [4]: 3

B5: Bd2740_(518–627), tip of the NS74 MAT fibre protein Bd2740 (domain or fragment, Bdellovibrio bacteriovorus HD100, UniProt Q6MJN2 518-627, looked up)
chain: APCDSGWTLINKGDPFCAKQQSVTGTNFATSMTQCLNNGGKLCDLQEAVGMCQTGFIPSNTTLWISQLADNSSAHVINCTSGSWSAGFYGFGVTVDGSNPILPYCCKGRR
notes: Bd2740 of Bdellovibrio bacteriovorus HD100 (627 aa), C-type lectin fold tip, residues 518-627 (the results print 517-626); Synthesised gene in pET29a; an Ala-Ser linker follows the hexa-His tag; source: E. coli BL21 RIPL (DE3), purified (Ni-NTA, Superdex 200)
stoichiometry N [5]: 3

B6: Bd2133_(910–1,031), tip-only variant of Bd2133 (domain or fragment, Bdellovibrio bacteriovorus HD100, UniProt Q6ML84 910-1031, looked up)
chain: AATWTSLGLTSLGAVSMTTTTEQSFTLPVAAQTASQILVYLRCHSGNASTTGADDIRIYTKEGAATYDHYLLMFPYAGQGAVGYNSDSFWLPKTSDNKIYLAHSMAPGSANSGCNFYITGYK
notes: Bd2133 of Bdellovibrio bacteriovorus HD100, β-sandwich tip domain, A910 to the C-terminus (1031); Made by deletion from the plasmid of Bd2133_(662–1,031); also called tip-only variant (A910 onwards); source: E. coli BL21 RIPL (DE3), purified (Ni-NTA, TEV, Ni-NTA, Superdex 200)
binding result [6]: binds

B7: Bd1334_(914–1,151) (domain or fragment, Bdellovibrio bacteriovorus HD100, UniProt Q6MNC5 914-1151, looked up)
chain: SAGTLAAPTAVTSGQSLTSLTAFAYNGTQYQSGGNASINFVATEAHTASAGGAKIIFNTTNNGATGSTEKVVIDQNGNVGVGVGAPTAKMDVNGGIKQPNYGIISAVRNSGGVTASMPWTNAYVLAHQGEMHQWVAGGPILQDSVTGCNAGPDAGVKFDSIATSWGGPYKVIFHTTGSNGAIHLEWSGWQVSLKNSAGTELAIGMGQVFATLHYDPAVSNWRVEHMFGRINNTNFTCW
notes: Bd1334 of Bdellovibrio bacteriovorus HD100, S914 to the C-terminus (W1151); also called Bd1334 from S914 onwards; source: E. coli BL21 RIPL (DE3), purified (Ni-NTA, TEV, Ni-NTA, Superdex 200)
stoichiometry N [7]: 3

B8: Bd1334_(818–1,151), tip of the NS74 MAT fibre protein Bd1334 (domain or fragment, Bdellovibrio bacteriovorus HD100, UniProt Q6MNC5 818-1151, looked up)
chain: SSAETDFATAVNGNLRFYTAAAGTDSERMRITGSGLVGIGTPAPAVPLQVATRVPSSAVHPNRAGIQAVGEGTDVGGRISALVSSTIEMATFSGYQSAGTLAAPTAVTSGQSLTSLTAFAYNGTQYQSGGNASINFVATEAHTASAGGAKIIFNTTNNGATGSTEKVVIDQNGNVGVGVGAPTAKMDVNGGIKQPNYGIISAVRNSGGVTASMPWTNAYVLAHQGEMHQWVAGGPILQDSVTGCNAGPDAGVKFDSIATSWGGPYKVIFHTTGSNGAIHLEWSGWQVSLKNSAGTELAIGMGQVFATLHYDPAVSNWRVEHMFGRINNTNFTCW
notes: Bd1334 of Bdellovibrio bacteriovorus HD100, S818 to the C-terminus (W1151); The cloning paragraph prints this construct as Bd1334_(818–1,031); everywhere else it is 818–1,151; source: E. coli BL21 RIPL (DE3), purified (Ni-NTA, TEV, Ni-NTA, Superdex 200)
stoichiometry N [8]: 3
